Target: T1, MUC1 (Mucin-1) as expressed by human cancer cell lines (human, UniProt P15941 24-1255)
T1 construct: whole, on cells; Endogenous antigen on the cell surface (flow cytometry) or in cell lysates (immunoprecipitation, western blot); also called MUC1 antigen; antigen recognized by the MP1 monoclonal antibody
Experiment: flow cytometry, Capan-2 cells stained with transient-expression culture solution; positive rate against the negative control

T1 sequence (P15941 24-1255): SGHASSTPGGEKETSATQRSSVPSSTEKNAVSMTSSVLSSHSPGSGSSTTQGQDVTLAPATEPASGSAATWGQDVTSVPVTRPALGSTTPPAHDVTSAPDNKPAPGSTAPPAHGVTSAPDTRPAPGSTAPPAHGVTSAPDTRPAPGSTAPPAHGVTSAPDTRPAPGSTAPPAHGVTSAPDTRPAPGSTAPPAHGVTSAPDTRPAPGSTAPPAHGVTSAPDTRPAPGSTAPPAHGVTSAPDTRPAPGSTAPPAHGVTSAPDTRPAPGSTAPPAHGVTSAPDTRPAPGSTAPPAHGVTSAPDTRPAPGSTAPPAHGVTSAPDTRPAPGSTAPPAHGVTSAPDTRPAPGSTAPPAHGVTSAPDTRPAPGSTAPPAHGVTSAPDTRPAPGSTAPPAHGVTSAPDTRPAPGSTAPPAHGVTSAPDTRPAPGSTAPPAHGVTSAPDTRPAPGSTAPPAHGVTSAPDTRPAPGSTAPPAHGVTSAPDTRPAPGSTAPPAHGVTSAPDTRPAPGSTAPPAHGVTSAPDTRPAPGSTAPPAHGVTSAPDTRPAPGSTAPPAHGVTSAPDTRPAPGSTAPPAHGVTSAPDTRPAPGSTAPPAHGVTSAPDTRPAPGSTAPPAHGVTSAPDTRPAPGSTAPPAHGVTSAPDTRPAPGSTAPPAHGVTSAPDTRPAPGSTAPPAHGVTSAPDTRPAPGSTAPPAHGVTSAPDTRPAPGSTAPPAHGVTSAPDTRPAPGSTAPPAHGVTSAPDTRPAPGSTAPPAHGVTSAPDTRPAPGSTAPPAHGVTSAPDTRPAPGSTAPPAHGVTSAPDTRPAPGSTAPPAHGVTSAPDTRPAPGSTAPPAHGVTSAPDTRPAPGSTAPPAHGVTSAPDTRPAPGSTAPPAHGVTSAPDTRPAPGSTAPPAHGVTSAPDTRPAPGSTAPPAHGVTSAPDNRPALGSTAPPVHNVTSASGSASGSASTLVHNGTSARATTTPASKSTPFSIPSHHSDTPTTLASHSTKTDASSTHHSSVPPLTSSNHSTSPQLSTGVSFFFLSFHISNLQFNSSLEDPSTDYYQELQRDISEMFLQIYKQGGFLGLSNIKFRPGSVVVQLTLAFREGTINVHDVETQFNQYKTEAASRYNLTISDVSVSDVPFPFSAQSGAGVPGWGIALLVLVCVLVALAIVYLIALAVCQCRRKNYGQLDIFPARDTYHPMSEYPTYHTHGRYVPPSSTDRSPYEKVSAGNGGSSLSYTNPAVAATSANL

B1: humanized MP1 antibody VH8/VL2 (antibody, V domains shown)
VH: QVQLVESGGGVVQPGRSLRLSCAASGITFSSYWMNWVRQAPGKGLEWVAQIRNKPYNYEKYYAQSVKGRFTISRDDSKSTLYLQMSSLRAEDTAVYYCAWAMITSDGYAMDYWGQGTLVTVSS
VL: DIVMTQSPDSLAVSLGERATISCKSSQSVLLSSNQKNYLAWYQQKPGQPPKLLIYWASTRESGVPDRFSGSGSGTEFTLTISSLQAEDVAVYYCQQSFSYPLTFGQGTKLEIK
notes: tested as ExpiCHO-S culture solution
Capan-2 cell surface binding (%): 11.4%

B2: humanized MP1 antibody VH8/VL8 (antibody, V domains shown)
VH: QVQLVESGGGVVQPGRSLRLSCAASGITFSSYWMNWVRQAPGKGLEWVAQIRNKPYNYEKYYAQSVKGRFTISRDDSKSTLYLQMSSLRAEDTAVYYCAWAMITSDGYAMDYWGQGTLVTVSS
VL: DIVMTQSPLSLPVTPGEPASISCRSSQSLLLSSNQKNYLAWYLQKPGQSPQLLIYWGSTRESGVPDRFSGSGSGTDFTLKISRVEAEDVGVYYCQQSFSYPLTFGQGTKLEIK
notes: as for B1
Capan-2 cell surface binding (%): 7.16%

B3: humanized MP1 antibody VH1/VL2 (antibody, V domains shown)
VH: EVKVVESGGGLVQPGRSLRLSCTASGITFSDYWMNWVRQAPGKGLEWVGQIRNKPYNYETYYSQSVKGRFTISRDDSKSIAYLQMSSLKTEDTAVYYCTWAMITSDGYAMDYWGQGTLVTVSS
VL: DIVMTQSPDSLAVSLGERATISCKSSQSVLLSSNQKNYLAWYQQKPGQPPKLLIYWASTRESGVPDRFSGSGSGTEFTLTISSLQAEDVAVYYCQQSFSYPLTFGQGTKLEIK
notes: as for B1
Capan-2 cell surface binding (%): 13.5%

B4: humanized MP1 antibody VH4/VL2 (antibody, V domains shown)
VH: EVKVVESGGGLVQPGGSLRLSCAASGITFSDYWMNWVRQAPGKGLEWVAQIRNKPYNYETYYSNSVKGRFTISRDDAKSSVYLQMSSLRAEDTAVYYCTWAMITSDGYAMDYWGQGTLVTVSS
VL: DIVMTQSPDSLAVSLGERATISCKSSQSVLLSSNQKNYLAWYQQKPGQPPKLLIYWASTRESGVPDRFSGSGSGTEFTLTISSLQAEDVAVYYCQQSFSYPLTFGQGTKLEIK
notes: as for B1
Capan-2 cell surface binding (%): 7.2%

B5: humanized MP1 antibody VH7/VL5 (antibody, V domains shown)
VH: QVKVVESGGGVVQPGRSLRLSCAASGITFSDYWMNWVRQAPGKGLEWVAQIRNKPYNYETYYSNSVKGRFTISRDDSKSTVYLQMSSLRAEDTAVYYCTWAMITSDGYAMDYWGQGTLVTVSS
VL: EIVLTQSPGTLSLSPGERATLSCRASQSVLLSSNQKNYLAWYQQKPGQAPRLLIYWASSRETGIPDRFSGSGSGTDFTLTISRLEPEDFAVYYCQQSFSYPLTFGQGTKLEIK
notes: as for B1
Capan-2 cell surface binding (%): 10.2%

B6: humanized MP1 antibody VH1/VL1 (antibody, V domains shown)
VH: EVKVVESGGGLVQPGRSLRLSCTASGITFSDYWMNWVRQAPGKGLEWVGQIRNKPYNYETYYSQSVKGRFTISRDDSKSIAYLQMSSLKTEDTAVYYCTWAMITSDGYAMDYWGQGTLVTVSS
VL: DIVMTQSPDSLAVSLGERATISCKSSQSLLLSSNQKNYLAWYQQKPGQPPKLLIYWASTRESGVPDRFSGSGSGTEFTLTISSVQAEDVAVYYCQQCFSYPLTFGQGTKLEIK
notes: as for B1
Capan-2 cell surface binding (%): 7.95%

B7: humanized MP1 antibody VH8/VL4 (antibody, V domains shown)
VH: QVQLVESGGGVVQPGRSLRLSCAASGITFSSYWMNWVRQAPGKGLEWVAQIRNKPYNYEKYYAQSVKGRFTISRDDSKSTLYLQMSSLRAEDTAVYYCAWAMITSDGYAMDYWGQGTLVTVSS
VL: EIVMTQSPGTLSLSPGERATLSCRSSQSLLLSSNQKNYLAWYQQKPGQAPRLLIYWASTRESGIPDRFSGSGSGTDFTLTISRVEPEDFAVYYCQQCFSYPLTFGQGTKLEIK
notes: as for B1
Capan-2 cell surface binding (%): 15.6%

B8: humanized MP1 antibody VH7/VL4 (antibody, V domains shown)
VH: QVKVVESGGGVVQPGRSLRLSCAASGITFSDYWMNWVRQAPGKGLEWVAQIRNKPYNYETYYSNSVKGRFTISRDDSKSTVYLQMSSLRAEDTAVYYCTWAMITSDGYAMDYWGQGTLVTVSS
VL: EIVMTQSPGTLSLSPGERATLSCRSSQSLLLSSNQKNYLAWYQQKPGQAPRLLIYWASTRESGIPDRFSGSGSGTDFTLTISRVEPEDFAVYYCQQCFSYPLTFGQGTKLEIK
notes: as for B1
Capan-2 cell surface binding (%): 12.7%

B9: humanized MP1 antibody VH8/VL6 (antibody, V domains shown)
VH: QVQLVESGGGVVQPGRSLRLSCAASGITFSSYWMNWVRQAPGKGLEWVAQIRNKPYNYEKYYAQSVKGRFTISRDDSKSTLYLQMSSLRAEDTAVYYCAWAMITSDGYAMDYWGQGTLVTVSS
VL: EIVLTQSPGTLSLSPGERATLSCRASQSVLLSSSQKNYLAWYQQKPGQAPRLLIYWASSRATGIPDRFSGSGSGTDFTLTISRLEPEDFAVYYCQQSFSSPYTFGQGTKLEIK
notes: as for B1
Capan-2 cell surface binding (%): 9.97%

B10: humanized MP1 antibody VH4/VL4 (antibody, V domains shown)
VH: EVKVVESGGGLVQPGGSLRLSCAASGITFSDYWMNWVRQAPGKGLEWVAQIRNKPYNYETYYSNSVKGRFTISRDDAKSSVYLQMSSLRAEDTAVYYCTWAMITSDGYAMDYWGQGTLVTVSS
VL: EIVMTQSPGTLSLSPGERATLSCRSSQSLLLSSNQKNYLAWYQQKPGQAPRLLIYWASTRESGIPDRFSGSGSGTDFTLTISRVEPEDFAVYYCQQCFSYPLTFGQGTKLEIK
notes: as for B1
Capan-2 cell surface binding (%): 18.1%

B11: humanized MP1 antibody VH8/VL5 (antibody, V domains shown)
VH: QVQLVESGGGVVQPGRSLRLSCAASGITFSSYWMNWVRQAPGKGLEWVAQIRNKPYNYEKYYAQSVKGRFTISRDDSKSTLYLQMSSLRAEDTAVYYCAWAMITSDGYAMDYWGQGTLVTVSS
VL: EIVLTQSPGTLSLSPGERATLSCRASQSVLLSSNQKNYLAWYQQKPGQAPRLLIYWASSRETGIPDRFSGSGSGTDFTLTISRLEPEDFAVYYCQQSFSYPLTFGQGTKLEIK
notes: as for B1
Capan-2 cell surface binding (%): 6.61%

B12: humanized MP1 antibody VH8/VL3 (antibody, V domains shown)
VH: QVQLVESGGGVVQPGRSLRLSCAASGITFSSYWMNWVRQAPGKGLEWVAQIRNKPYNYEKYYAQSVKGRFTISRDDSKSTLYLQMSSLRAEDTAVYYCAWAMITSDGYAMDYWGQGTLVTVSS
VL: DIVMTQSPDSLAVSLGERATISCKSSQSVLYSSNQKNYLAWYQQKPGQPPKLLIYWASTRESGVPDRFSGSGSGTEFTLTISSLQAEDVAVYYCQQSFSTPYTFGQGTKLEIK
notes: as for B1
Capan-2 cell surface binding (%): 28.5%

B13: humanized MP1 antibody VH9/VL2 (antibody, V domains shown)
VH: QVQLVESGGGVVQPGRSLRLSCAASGFTFSSYWMHWVRQAPGKGLEWVAVIRYKPYGSEKYYAQSVKGRFTISRDDSKSTLYLQMSSLRAEDTAVYYCAWAMITSDGYAFDYWGQGTLVTVSS
VL: DIVMTQSPDSLAVSLGERATISCKSSQSVLLSSNQKNYLAWYQQKPGQPPKLLIYWASTRESGVPDRFSGSGSGTEFTLTISSLQAEDVAVYYCQQSFSYPLTFGQGTKLEIK
notes: as for B1
Capan-2 cell surface binding (%): 7.04%

B14: humanized MP1 antibody VH7/VL3 (antibody, V domains shown)
VH: QVKVVESGGGVVQPGRSLRLSCAASGITFSDYWMNWVRQAPGKGLEWVAQIRNKPYNYETYYSNSVKGRFTISRDDSKSTVYLQMSSLRAEDTAVYYCTWAMITSDGYAMDYWGQGTLVTVSS
VL: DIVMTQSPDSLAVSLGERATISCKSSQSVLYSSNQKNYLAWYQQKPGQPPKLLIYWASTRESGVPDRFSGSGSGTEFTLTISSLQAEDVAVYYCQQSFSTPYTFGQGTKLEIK
notes: as for B1
Capan-2 cell surface binding (%): 11.5%

B15: humanized MP1 antibody VH8/VL1 (antibody, V domains shown)
VH: QVQLVESGGGVVQPGRSLRLSCAASGITFSSYWMNWVRQAPGKGLEWVAQIRNKPYNYEKYYAQSVKGRFTISRDDSKSTLYLQMSSLRAEDTAVYYCAWAMITSDGYAMDYWGQGTLVTVSS
VL: DIVMTQSPDSLAVSLGERATISCKSSQSLLLSSNQKNYLAWYQQKPGQPPKLLIYWASTRESGVPDRFSGSGSGTEFTLTISSVQAEDVAVYYCQQCFSYPLTFGQGTKLEIK
notes: as for B1
Capan-2 cell surface binding (%): 6.65%

B16: humanized MP1 antibody VH1/VL5 (antibody, V domains shown)
VH: EVKVVESGGGLVQPGRSLRLSCTASGITFSDYWMNWVRQAPGKGLEWVGQIRNKPYNYETYYSQSVKGRFTISRDDSKSIAYLQMSSLKTEDTAVYYCTWAMITSDGYAMDYWGQGTLVTVSS
VL: EIVLTQSPGTLSLSPGERATLSCRASQSVLLSSNQKNYLAWYQQKPGQAPRLLIYWASSRETGIPDRFSGSGSGTDFTLTISRLEPEDFAVYYCQQSFSYPLTFGQGTKLEIK
notes: as for B1
Capan-2 cell surface binding (%): 27.2%

B17: humanized MP1 antibody VH4/VL5 (antibody, V domains shown)
VH: EVKVVESGGGLVQPGGSLRLSCAASGITFSDYWMNWVRQAPGKGLEWVAQIRNKPYNYETYYSNSVKGRFTISRDDAKSSVYLQMSSLRAEDTAVYYCTWAMITSDGYAMDYWGQGTLVTVSS
VL: EIVLTQSPGTLSLSPGERATLSCRASQSVLLSSNQKNYLAWYQQKPGQAPRLLIYWASSRETGIPDRFSGSGSGTDFTLTISRLEPEDFAVYYCQQSFSYPLTFGQGTKLEIK
notes: as for B1
Capan-2 cell surface binding (%): 16.9%

B18: humanized MP1 antibody VH1/VL4 (antibody, V domains shown)
VH: EVKVVESGGGLVQPGRSLRLSCTASGITFSDYWMNWVRQAPGKGLEWVGQIRNKPYNYETYYSQSVKGRFTISRDDSKSIAYLQMSSLKTEDTAVYYCTWAMITSDGYAMDYWGQGTLVTVSS
VL: EIVMTQSPGTLSLSPGERATLSCRSSQSLLLSSNQKNYLAWYQQKPGQAPRLLIYWASTRESGIPDRFSGSGSGTDFTLTISRVEPEDFAVYYCQQCFSYPLTFGQGTKLEIK
notes: as for B1
Capan-2 cell surface binding (%): 15.8%

B19: humanized MP1 antibody VH4/VL8 (antibody, V domains shown)
VH: EVKVVESGGGLVQPGGSLRLSCAASGITFSDYWMNWVRQAPGKGLEWVAQIRNKPYNYETYYSNSVKGRFTISRDDAKSSVYLQMSSLRAEDTAVYYCTWAMITSDGYAMDYWGQGTLVTVSS
VL: DIVMTQSPLSLPVTPGEPASISCRSSQSLLLSSNQKNYLAWYLQKPGQSPQLLIYWGSTRESGVPDRFSGSGSGTDFTLKISRVEAEDVGVYYCQQSFSYPLTFGQGTKLEIK
notes: as for B1
Capan-2 cell surface binding (%): 11.4%

B20: humanized MP1 antibody VH4/VL7 (antibody, V domains shown)
VH: EVKVVESGGGLVQPGGSLRLSCAASGITFSDYWMNWVRQAPGKGLEWVAQIRNKPYNYETYYSNSVKGRFTISRDDAKSSVYLQMSSLRAEDTAVYYCTWAMITSDGYAMDYWGQGTLVTVSS
VL: DIVMTQSPLSLPVTPGEPASISCRSSQSLLLSSNQKNYLAWYLQKPGQSPQLLIYWASTRESGVPDRFSGSGSGTDFTLKISRVEAEDVGVYYCQQCFSYPLTFGQGTKLEIK
notes: as for B1
Capan-2 cell surface binding (%): 11%
